Molecular target: T1, GST-IRF3-IR (GST-tagged IRF3 IR domain) (GST carrier left out. Limits are not printed: the paired constructs IRF3-DP and IRF3-IR are read as DBD + proline-rich region and IAD + C-terminal regulatory (response) region. The IR start at about r)
T1 chain: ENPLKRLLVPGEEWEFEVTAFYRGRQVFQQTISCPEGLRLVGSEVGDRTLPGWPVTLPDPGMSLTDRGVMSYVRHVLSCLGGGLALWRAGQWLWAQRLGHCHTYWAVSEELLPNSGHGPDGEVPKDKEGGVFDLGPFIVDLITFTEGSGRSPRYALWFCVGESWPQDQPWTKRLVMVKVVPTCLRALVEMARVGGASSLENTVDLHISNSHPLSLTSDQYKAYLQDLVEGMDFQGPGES
Assay: ELISA; cell-free; purified GST-IRF3-IR and His-AXIN1-RGS (n = 3); which one was coated is not told
Conditions: both partners purified

B1: His-AXIN1-RGS (His-tagged AXIN1 RGS domain) (domain or fragment, UniProt O15169 88-211, looked up)
chain: SLHSLLDDQDGISLFRTFLKQEGCADLLDFWFACTGFRKLEPCDSNEEKRLKLARAIYRKYILDNNGIVSRQTKPATKSFIKGCIMKQLIDPAMFDQAQTEIQATMEENTYPSFLKSDIYLEYT
notes: RGS domain of AXIN1; source: purified
- EC50: 1.72 nM
